Consider 40 sequences from the supplement of paper PMC7877785.

± gives the uncertainty stated by the source.

This series can be described thus: self-splicing fitness, log relative to wild type (ln ratio); higher = more splicing; Tetrahymena group I intron in knt gene, E. coli kanamycin selection, DiMSum; sequences stand for … in CUCUCU…GGAGGGAAAAGUUAUCAGGCAUGCACCUGGUAGCUAGUCUUUAAACCAAUAGAUUGCAUCGGUUUAAAAGGCAAGACCGUCAAAUUGCGGGAAAGGGGUCAACAGCCGUUCAGUACCAAGUCUCAGGGGAAACUUUGAGAUGGCCUUGCAAAGGGUAUGGUAAUAAGCUGACGGACAUGGUCCUAACCACGCAGCCAAGUCCUAAGUCAACAGAUCUUCUGUUGAUAUGGAUGCAGUUCACAGACUAAAUGUCGGUCGGGGAAGAUGUAUUCUUCUCAUAAGAUAUAGUCGGACCUCUCCUUAAUGGGAGCUAGCGGAUGAAGUGAUGCAACACUGGAGCCGCUGGGAACUAAUUUGUAUGCGAAAGUAUAUUGAUUAGUUUUGGAGUACUCGUGGUCG
In short, it runs like this: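 Pooled colonies went to amplicon sequencing on an Illumina HiSeq 2500 after six replicate transformations. The plates were LB agar with 100 μg/mL carbenicillin, 50 μM IPTG and 0.2% rhamnose, with or without 25 μg/mL kanamycin, incubated overnight at 37°C or 30°C. The E. coli BL21(DE3) library had all eight P1ex-region intron nucleotides randomised, the intron placed in the knt kanamycin-resistance gene on pET-22b(+). DiMSum fitness is the error-weighted combination of replicate fold changes, kanamycin against none, normalised to wild type.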

Regarding CAUAAGCAAUAUUACGAGAA, the “self-splicing fitness (ln)” value (37 °C) is -2.27 ± 0.3. Take GAAGAGCAAUAUUACGUCUG: the “self-splicing fitness (ln)” value reads like this: (30 °C) -2.34 ± 0.14; (37 °C) -1.76 ± 0.16. As for AGAAAGCAAUAUUACGAACU, the “self-splicing fitness (ln)” value was -0.0259 ± 0.096 (30 °C) and 0.00874 ± 0.12 (37 °C).

In the case of GAAUAGCAAUAUUACGACUU, the “self-splicing fitness (ln)” value is, setting by setting: (30 °C) 0.269 ± 0.073; (37 °C) 0.548 ± 0.092. AAUCAGCAAUAUUACGCGUC: the “self-splicing fitness (ln)” value runs as follows: (30 °C) -1.14 ± 0.071; (37 °C) 0.513 ± 0.088.

With AUGUAGCAAUAUUACGGCUG, the “self-splicing fitness (ln)” value by setting is: (30 °C) -1.95 ± 0.14; (37 °C) -2.27 ± 0.28. Consider UUCCAGCAAUAUUACGAAAC, for which the “self-splicing fitness (ln)” value (37 °C) is -2.29 ± 0.35. Consider GUGAAGCAAUAUUACGGAAA, for which the “self-splicing fitness (ln)” value is -1.64 ± 0.11 (30 °C) and -0.16 ± 0.17 (37 °C). On to CGUCAGCAAUAUUACGCCCG, for which the “self-splicing fitness (ln)” value is, setting by setting: (30 °C) -1.23 ± 0.17; (37 °C) -0.0073 ± 0.24. In the case of GCCGAGCAAUAUUACGGGAG, the “self-splicing fitness (ln)” value runs as follows: (30 °C) -3.67 ± 0.24; (37 °C) -2.18 ± 0.24. With AACCAGCAAUAUUACGGGUG, the “self-splicing fitness (ln)” value reads like this: (30 °C) -1.14 ± 0.046; (37 °C) -0.409 ± 0.064.

With GCCCAGCAAUAUUACGACUA, the “self-splicing fitness (ln)” value is, setting by setting: (30 °C) -1.54 ± 0.1; (37 °C) -0.508 ± 0.11. UGGUAGCAAUAUUACGGCAU: the “self-splicing fitness (ln)” value was -1.5 ± 0.2 (30 °C) and -0.405 ± 0.21 (37 °C). Regarding GAAAAGCAAUAUUACGCACC, the “self-splicing fitness (ln)” value reads like this: (30 °C) -0.811 ± 0.28; (37 °C) -0.377 ± 0.31. ACCCAGCAAUAUUACGUCAG: the “self-splicing fitness (ln)” value reads like this: (30 °C) -3.14 ± 0.11; (37 °C) -1.22 ± 0.092. Consider GAGGAGCAAUAUUACGAAGC, for which the “self-splicing fitness (ln)” value by setting is: (30 °C) -1.73 ± 0.32; (37 °C) -2.22 ± 0.4.

Regarding GUAUAGCAAUAUUACGGCGU, the “self-splicing fitness (ln)” value runs as follows: (30 °C) -0.696 ± 0.13; (37 °C) 0.267 ± 0.19. As to AAGCAGCAAUAUUACGAAGA, the “self-splicing fitness (ln)” value was -3.03 ± 0.19 (30 °C) and -1.44 ± 0.097 (37 °C). Regarding UGCUAGCAAUAUUACGUGUG, the “self-splicing fitness (ln)” value by setting is: (30 °C) -1.63 ± 0.08; (37 °C) -0.822 ± 0.096. As to CCCCAGCAAUAUUACGACUU, the “self-splicing fitness (ln)” value (30 °C) is -3.29 ± 0.13 and the “self-splicing fitness (ln)” value (37 °C) is -3 ± 0.22.

As for CGAGAGCAAUAUUACGAGAC, the “self-splicing fitness (ln)” value (30 °C) was -2.64 ± 0.46.

For the sequence GUCCAGCAAUAUUACGUAAC, the “self-splicing fitness (ln)” value (30 °C) is -0.291 ± 0.073 and the “self-splicing fitness (ln)” value (37 °C) is -0.649 ± 0.095. Turning to ACUGAGCAAUAUUACGUUUA, the “self-splicing fitness (ln)” value runs as follows: (30 °C) -2.52 ± 0.2; (37 °C) -3.08 ± 0.24. Take GGCCAGCAAUAUUACGGUGA: the “self-splicing fitness (ln)” value (30 °C) is -0.376 ± 0.057 and the “self-splicing fitness (ln)” value (37 °C) amounted to 0.327 ± 0.076. Regarding GGGUAGCAAUAUUACGUGAA, the “self-splicing fitness (ln)” value runs as follows: (30 °C) -1.36 ± 0.13; (37 °C) -0.147 ± 0.16. For the sequence CAUUAGCAAUAUUACGCGCU, the “self-splicing fitness (ln)” value was -2.9 ± 0.21 (30 °C) and -1.51 ± 0.26 (37 °C). For the sequence CUAUAGCAAUAUUACGACUC, where the note is “37 °C”, the “self-splicing fitness (ln)” value is -1.31 ± 0.39. The same measure, in the same setting: the same measure for CAUAAGCAAUAUUACGGAUC: -1.38 ± 0.23.

With UGACAGCAAUAUUACGUCUC, the “self-splicing fitness (ln)” value by setting is: (30 °C) -4.29 ± 0.34; (37 °C) -1.47 ± 0.22.

As to GGUUAGCAAUAUUACGCGAA, the “self-splicing fitness (ln)” value runs as follows: (30 °C) -0.818 ± 0.25; (37 °C) -0.0649 ± 0.35.

For the sequence CAUAAGCAAUAUUACGCUGU, the “self-splicing fitness (ln)” value is -3.79 ± 0.27 (30 °C) and -1.05 ± 0.15 (37 °C). Consider CCGAAGCAAUAUUACGUGCA, for which, under “30 °C”, the “self-splicing fitness (ln)” value is -3.4 ± 0.3. Regarding CCUUAGCAAUAUUACGGCAA, the “self-splicing fitness (ln)” value reads like this: (30 °C) -3.57 ± 0.33; (37 °C) -2.54 ± 0.24. For the sequence UCCGAGCAAUAUUACGGGGU, the “self-splicing fitness (ln)” value is -2.7 ± 0.2 (30 °C) and -2.45 ± 0.28 (37 °C). On to CUAGAGCAAUAUUACGGGCA, for which, where the note is “37 °C”, the “self-splicing fitness (ln)” value is -2.34 ± 0.36.

In the case of UCAGAGCAAUAUUACGUGUA, the “self-splicing fitness (ln)” value is -2.57 ± 0.23 (30 °C) and -2.18 ± 0.19 (37 °C). On to AUGCAGCAAUAUUACGAUGA, for which the “self-splicing fitness (ln)” value is, setting by setting: (30 °C) -1.93 ± 0.16; (37 °C) -1.04 ± 0.14. For CGAGAGCAAUAUUACGUUGU, the “self-splicing fitness (ln)” value (37 °C) was -1.57 ± 0.19. On to CAAGAGCAAUAUUACGGGGC, for which the “self-splicing fitness (ln)” value is -1.99 ± 0.14 (30 °C) and -3.02 ± 0.25 (37 °C).

In the case of CACGAGCAAUAUUACGGAAU, the “self-splicing fitness (ln)” value is -2.85 ± 0.25 (30 °C) and -1.67 ± 0.23 (37 °C).
